The chains are these.
T1: FimD, type 1 pilus assembly platform (usher) (E. coli, UniProt P30130 46-878)
T1 sequence: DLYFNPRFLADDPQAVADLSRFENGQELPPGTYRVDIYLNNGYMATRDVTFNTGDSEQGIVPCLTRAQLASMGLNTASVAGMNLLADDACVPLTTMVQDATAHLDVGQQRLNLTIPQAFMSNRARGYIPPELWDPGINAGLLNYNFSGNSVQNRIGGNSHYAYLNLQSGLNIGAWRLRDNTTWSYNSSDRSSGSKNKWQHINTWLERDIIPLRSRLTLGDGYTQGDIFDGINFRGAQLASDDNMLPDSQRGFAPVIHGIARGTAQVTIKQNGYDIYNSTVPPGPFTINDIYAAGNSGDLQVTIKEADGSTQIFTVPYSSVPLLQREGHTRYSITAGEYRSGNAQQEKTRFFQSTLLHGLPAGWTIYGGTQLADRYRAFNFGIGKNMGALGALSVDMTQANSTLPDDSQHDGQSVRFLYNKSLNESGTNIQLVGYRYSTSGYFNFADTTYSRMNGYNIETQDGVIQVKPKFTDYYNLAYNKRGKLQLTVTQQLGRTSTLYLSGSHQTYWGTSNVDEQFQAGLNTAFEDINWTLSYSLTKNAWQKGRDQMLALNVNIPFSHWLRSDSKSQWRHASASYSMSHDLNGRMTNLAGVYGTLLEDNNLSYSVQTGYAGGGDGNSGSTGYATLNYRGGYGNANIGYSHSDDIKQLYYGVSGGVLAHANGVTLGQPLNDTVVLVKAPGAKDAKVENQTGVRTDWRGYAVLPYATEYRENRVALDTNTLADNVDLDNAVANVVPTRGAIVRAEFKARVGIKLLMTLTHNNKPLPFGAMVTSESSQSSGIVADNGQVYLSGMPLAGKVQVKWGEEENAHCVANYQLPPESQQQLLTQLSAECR

B1: FimA, main subunit of the type 1 pilus rod (natural protein)
chain: AATTVNGGTVHFKGEVVNAACAVDAGSVDQTVQLGQVRTASLAQEGATSSAVGFNIQLNDCDTNVASKAAVAFLGTAIDAGHTNVLALQSSAAGSATNVGVQILDRTGAALTLDGATFSSETTLNNGTNTIPFQARYFATGAATPGAANADATFKVQYQ
notes: also called FimAn; FimAn-1
B2: FimI, assembly terminator subunit of the type 1 pilus (natural protein)
chain: GNKWNTTLPGGNMQFQGVIIAETCRIEAGDKQMTVNMGQISSNRFHAVGEDSAPVPFVIHLRECSTVVSERVGVAFHGVADGKNPDVLSVGEGPGIATNIGVALFDDEGNLVPINRPPANWKRLYSGSTSLHFIAKYRATGRRVTGGIANAQAWFSLTYQ
B3: FimCHis, His-tagged type 1 pilus assembly chaperone FimC (natural protein)
chain: GVALGATRVIYPAGQKQEQLAVTNNDENSTYLIQSWVENADGVKDGRFIVTPPLFAMKGKKENTLRILDATNNQLPQDRESLFWMNVKAIPSMDKSKLTENTLQLAIISRIKLYYRPAKLALPPDQAAEKLRFRRSANSLTLINPTPYYLTVTELNAGTRVLENALVPPMGESTVKLPSDAGSNITYRTINDYGALTPKMTGVME
notes: source: E. coli BL21(DE3) (pFimCHis-cyt), purified (HisTrap, Source 30S); also co-expressed with FimD and FimH in E. coli Tuner (pETS1001) and purified as FimDCH
B4: FimC, type 1 pilus assembly chaperone (untagged) (natural protein)
chain: B3 chain
notes: source: E. coli BL21(DE3) (pFimC-cyt), purified (Q Sepharose, Source 30S, Phenyl Sepharose); also co-expressed with FimF or FimG in E. coli HM125 and purified from periplasmic extract as FimFC or FimGC

What all share (assay): cryo-EM structure
Data set [1] has as its target T1, FimD, type 1 pilus assembly platform …. To be noted: both partners purified.
Data set [2] concerns the target B4. To be noted: both partners purified.
For data set [3], the target named is B3. To be noted: both partners purified.
For data set [4], the target named is B2. To be noted: both partners purified.
The data set “cryo-EM structure” deals with the molecule itself.

Results on 4 molecules are retold here after PMC12122975, “Structures of the Escherichia coli type 1 pilus during pilus rod assembly and after assembly termination” (Nature Communications, 2025).

As for B1, the binding result (in data set [1]; in data set [2]; in data set [3]; in data set [4]; in “cryo-EM structure”) was “binds” each time.
Consider B2, for which the binding result (in data set [1]; in data set [3]; in “cryo-EM structure”) was “binds” each time.
As for B3, the binding result in data set [1] was “binds”.
Still for that read-out and setting: with B4 the entry was “binds”.
